Measured values reported in patent US20220204643A1 (published 2022).
One block for each binder: values may come before it.

Key:
[1] = molecular target: T1, FA complementation group G (human, UniProt O15287 1-622)
T1 construct: HuProt array protein, full-length recombinant from yeast; also called FANCG
T1 sequence: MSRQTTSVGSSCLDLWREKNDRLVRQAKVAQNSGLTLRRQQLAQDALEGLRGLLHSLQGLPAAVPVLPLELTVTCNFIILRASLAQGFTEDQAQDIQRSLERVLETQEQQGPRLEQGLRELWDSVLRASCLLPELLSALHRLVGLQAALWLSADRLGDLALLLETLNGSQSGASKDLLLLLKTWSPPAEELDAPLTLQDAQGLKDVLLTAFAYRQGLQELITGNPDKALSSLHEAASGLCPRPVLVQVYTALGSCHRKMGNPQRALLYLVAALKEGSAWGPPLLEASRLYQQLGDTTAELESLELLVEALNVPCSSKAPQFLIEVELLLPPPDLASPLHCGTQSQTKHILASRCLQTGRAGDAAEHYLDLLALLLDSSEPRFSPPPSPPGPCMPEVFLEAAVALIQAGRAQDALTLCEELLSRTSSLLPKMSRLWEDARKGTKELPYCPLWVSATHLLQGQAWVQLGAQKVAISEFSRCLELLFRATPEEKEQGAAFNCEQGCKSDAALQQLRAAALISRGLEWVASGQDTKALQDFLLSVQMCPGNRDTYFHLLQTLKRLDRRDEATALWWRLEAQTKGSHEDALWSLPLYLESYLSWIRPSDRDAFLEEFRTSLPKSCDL

[2] = molecular target: T2, endosome associated trafficking regulator 1, transcript variant 2 (human, UniProt Q96C92 59-435)
T2 construct: HuProt array protein, full-length recombinant from yeast; also called SDCCAG3
T2 chain: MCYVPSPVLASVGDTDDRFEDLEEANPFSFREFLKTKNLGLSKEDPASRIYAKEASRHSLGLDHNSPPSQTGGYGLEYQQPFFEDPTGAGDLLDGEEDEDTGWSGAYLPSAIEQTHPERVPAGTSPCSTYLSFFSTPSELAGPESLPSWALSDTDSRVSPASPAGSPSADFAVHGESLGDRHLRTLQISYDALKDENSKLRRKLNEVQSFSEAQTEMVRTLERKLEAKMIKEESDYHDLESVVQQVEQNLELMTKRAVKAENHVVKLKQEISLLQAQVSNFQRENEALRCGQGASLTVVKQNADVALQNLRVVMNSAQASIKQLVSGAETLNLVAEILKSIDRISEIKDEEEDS

[3] = molecular target: T3, charged multivesicular body protein 4B (human, UniProt Q9H444 2-224)
T3 construct: HuProt array protein, full-length recombinant from yeast; also called CHMP4B
T3 sequence: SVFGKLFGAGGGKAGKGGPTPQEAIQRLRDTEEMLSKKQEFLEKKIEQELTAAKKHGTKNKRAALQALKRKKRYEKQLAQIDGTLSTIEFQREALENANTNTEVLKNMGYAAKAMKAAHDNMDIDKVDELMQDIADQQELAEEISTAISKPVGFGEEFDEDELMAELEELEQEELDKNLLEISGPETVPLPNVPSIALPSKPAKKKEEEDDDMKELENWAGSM

[4] = molecular target: T4, zinc finger protein 8 (human, UniProt P17098 1-575)
T4 construct: HuProt array protein, full-length recombinant from yeast; also called ZNF8
T4 sequence (P17098 whole entry): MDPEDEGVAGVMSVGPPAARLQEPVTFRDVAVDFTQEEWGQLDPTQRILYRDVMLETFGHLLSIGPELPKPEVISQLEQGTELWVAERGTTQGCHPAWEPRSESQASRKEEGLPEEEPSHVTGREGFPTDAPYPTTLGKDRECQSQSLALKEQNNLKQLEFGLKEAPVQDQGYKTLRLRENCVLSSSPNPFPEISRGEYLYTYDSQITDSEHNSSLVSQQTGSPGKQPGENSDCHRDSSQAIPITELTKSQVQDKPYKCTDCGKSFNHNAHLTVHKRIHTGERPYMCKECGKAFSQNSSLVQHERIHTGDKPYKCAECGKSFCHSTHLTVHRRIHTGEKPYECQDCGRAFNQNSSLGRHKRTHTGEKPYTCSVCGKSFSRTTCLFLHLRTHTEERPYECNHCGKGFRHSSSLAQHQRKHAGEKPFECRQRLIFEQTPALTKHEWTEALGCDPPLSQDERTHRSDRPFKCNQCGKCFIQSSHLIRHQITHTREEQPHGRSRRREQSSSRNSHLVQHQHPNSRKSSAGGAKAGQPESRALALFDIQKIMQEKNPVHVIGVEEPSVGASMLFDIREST

[5] = molecular target: T5, SATB homeobox 2, transcript variant 2 (human, UniProt Q9UPW6 1-733)
T5 construct: HuProt array protein, full-length recombinant from yeast; also called SATB2
T5 sequence: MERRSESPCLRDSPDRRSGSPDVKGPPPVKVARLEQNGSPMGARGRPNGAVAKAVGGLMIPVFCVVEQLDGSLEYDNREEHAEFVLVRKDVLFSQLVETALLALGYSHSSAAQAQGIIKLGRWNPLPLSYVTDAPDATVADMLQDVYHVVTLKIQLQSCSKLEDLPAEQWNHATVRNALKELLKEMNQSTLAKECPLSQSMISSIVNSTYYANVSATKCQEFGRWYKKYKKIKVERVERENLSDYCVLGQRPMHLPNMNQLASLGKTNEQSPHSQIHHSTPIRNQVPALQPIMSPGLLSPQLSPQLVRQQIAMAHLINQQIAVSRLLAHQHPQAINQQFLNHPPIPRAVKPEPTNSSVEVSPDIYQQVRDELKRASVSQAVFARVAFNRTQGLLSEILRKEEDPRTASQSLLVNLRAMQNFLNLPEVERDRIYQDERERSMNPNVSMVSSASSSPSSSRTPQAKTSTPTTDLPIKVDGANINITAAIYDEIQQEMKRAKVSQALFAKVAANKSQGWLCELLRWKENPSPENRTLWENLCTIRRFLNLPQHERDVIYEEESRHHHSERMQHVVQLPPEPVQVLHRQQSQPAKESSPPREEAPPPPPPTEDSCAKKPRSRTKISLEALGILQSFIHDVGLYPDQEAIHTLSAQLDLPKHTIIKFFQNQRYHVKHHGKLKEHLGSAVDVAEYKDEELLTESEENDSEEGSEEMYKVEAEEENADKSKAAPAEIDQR

[6] = molecular target: T6, ganglioside induced differentiation associated protein 1, transcript variant 2 (human, UniProt Q8TB36 69-358)
T6 construct: HuProt array protein, full-length recombinant from yeast; also called GDAP1
T6 sequence: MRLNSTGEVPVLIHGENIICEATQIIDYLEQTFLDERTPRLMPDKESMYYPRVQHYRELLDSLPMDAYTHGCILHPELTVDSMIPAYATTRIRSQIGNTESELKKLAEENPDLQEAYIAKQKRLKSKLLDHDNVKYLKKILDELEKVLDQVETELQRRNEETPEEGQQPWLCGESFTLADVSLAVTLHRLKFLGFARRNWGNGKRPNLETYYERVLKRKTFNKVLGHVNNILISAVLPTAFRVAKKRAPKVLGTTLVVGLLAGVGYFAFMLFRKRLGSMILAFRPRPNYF

[7] = molecular target: T7, DEAD-box helicase 18 (human, UniProt Q9NVP1 1-670)
T7 construct: HuProt array protein, full-length recombinant from yeast; also called DDX18
T7 sequence: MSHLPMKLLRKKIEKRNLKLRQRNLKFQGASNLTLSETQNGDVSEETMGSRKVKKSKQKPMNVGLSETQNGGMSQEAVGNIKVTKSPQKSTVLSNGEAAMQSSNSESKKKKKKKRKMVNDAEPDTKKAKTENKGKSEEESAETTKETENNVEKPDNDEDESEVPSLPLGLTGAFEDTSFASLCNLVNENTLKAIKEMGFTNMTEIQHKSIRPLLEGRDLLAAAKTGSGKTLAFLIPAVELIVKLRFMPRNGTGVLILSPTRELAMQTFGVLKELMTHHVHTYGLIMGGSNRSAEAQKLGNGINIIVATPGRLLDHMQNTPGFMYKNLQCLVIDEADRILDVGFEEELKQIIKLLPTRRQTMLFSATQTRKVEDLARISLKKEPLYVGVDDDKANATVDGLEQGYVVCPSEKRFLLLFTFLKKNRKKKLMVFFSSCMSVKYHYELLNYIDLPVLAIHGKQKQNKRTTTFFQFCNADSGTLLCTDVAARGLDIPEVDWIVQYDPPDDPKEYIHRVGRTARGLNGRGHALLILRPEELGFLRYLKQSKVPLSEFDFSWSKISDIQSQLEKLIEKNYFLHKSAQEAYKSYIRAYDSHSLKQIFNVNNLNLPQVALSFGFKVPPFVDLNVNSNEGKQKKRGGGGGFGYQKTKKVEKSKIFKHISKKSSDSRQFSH

[8] = molecular target: T8, syntaxin 1A, transcript variant 1 (human, UniProt Q16623 1-288)
T8 construct: HuProt array protein, full-length recombinant from yeast; also called STX1A
T8 sequence (Q16623 whole entry, change not shown): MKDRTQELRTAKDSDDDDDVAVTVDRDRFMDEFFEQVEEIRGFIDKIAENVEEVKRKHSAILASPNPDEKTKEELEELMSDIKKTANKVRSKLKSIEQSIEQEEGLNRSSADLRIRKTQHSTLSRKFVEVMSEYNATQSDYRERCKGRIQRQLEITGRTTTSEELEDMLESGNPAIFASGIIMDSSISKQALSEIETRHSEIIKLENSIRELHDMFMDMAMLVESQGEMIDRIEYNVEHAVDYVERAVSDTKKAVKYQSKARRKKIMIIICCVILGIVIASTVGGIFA

[9] = molecular target: T9, geminin DNA replication inhibitor, transcript variant 1 (human, UniProt O75496 1-209)
T9 construct: HuProt array protein, full-length recombinant from yeast; also called GMNN
T9 sequence: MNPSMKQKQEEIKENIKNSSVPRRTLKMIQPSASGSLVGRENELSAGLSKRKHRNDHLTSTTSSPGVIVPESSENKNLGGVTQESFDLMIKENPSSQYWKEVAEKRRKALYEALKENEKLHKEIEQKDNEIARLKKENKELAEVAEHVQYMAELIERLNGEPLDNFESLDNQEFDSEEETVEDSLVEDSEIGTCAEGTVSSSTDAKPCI

[10] = molecular target: T10, X-linked inhibitor of apoptosis, transcript variant 2 (human, UniProt P98170 1-497)
T10 construct: HuProt array protein, full-length recombinant from yeast; also called XIAP
T10 sequence (P98170 whole entry, change not shown): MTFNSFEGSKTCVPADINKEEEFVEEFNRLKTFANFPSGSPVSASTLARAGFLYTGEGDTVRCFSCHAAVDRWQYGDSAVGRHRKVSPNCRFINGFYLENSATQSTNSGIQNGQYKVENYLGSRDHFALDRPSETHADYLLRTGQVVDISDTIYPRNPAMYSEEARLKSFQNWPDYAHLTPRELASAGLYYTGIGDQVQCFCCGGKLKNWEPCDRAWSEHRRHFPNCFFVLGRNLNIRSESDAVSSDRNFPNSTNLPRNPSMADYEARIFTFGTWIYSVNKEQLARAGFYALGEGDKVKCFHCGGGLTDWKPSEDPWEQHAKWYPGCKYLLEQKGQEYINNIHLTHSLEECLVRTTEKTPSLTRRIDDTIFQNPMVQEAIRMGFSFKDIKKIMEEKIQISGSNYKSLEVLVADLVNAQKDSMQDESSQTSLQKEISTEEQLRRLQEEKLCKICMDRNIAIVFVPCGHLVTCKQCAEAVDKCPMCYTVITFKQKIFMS

[11] = molecular target: T11, butyrophilin subfamily 1 member A1 (human, UniProt Q13410 27-526)
T11 construct: HuProt array protein, full-length recombinant from yeast; also called BTN1A1
T11 sequence: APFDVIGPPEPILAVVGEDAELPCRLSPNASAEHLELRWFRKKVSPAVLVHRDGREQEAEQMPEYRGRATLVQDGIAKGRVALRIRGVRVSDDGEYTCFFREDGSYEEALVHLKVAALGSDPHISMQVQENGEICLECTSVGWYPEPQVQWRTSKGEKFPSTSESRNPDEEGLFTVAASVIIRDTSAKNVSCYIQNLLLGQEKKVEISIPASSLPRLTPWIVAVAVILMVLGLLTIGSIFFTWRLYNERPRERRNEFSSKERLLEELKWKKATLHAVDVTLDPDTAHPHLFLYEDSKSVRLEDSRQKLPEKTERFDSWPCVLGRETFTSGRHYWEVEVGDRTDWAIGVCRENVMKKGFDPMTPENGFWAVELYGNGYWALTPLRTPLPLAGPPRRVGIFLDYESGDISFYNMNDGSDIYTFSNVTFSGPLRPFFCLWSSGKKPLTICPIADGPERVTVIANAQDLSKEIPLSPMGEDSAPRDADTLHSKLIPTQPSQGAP

B1: TBRE1024 (antibody, V domains shown)
VH: PVQLQESGPGLVKPSETLSLTCTVSGGSISSDNYYWSWLRQHPGKGLEWIGYIYFSVTTYYNPSLKSRVTISLDTSKNQFSLKLSSVTAADTAVYYCASGYVSFDLWGQGTLVTVSS
VL: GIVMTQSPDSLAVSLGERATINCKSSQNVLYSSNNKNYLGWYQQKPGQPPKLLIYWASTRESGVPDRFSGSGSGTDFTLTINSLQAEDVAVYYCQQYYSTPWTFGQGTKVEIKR
notes: detected with anti-human IgG Fc
binding result [1]: binds

B2: TBRE1034 (antibody, V domains shown)
VH: QVQLVESGGGLVEPGGSLRLSCAASGFTFSDYYMSWIRQAPGKRLEWISHMSSGGNRRHYADSVRGRFTISRDNAKNSLYLQMNSMRADDTAVYYCARDKRSGMTSDRRIDYWGQGTRVTVSS
VL: DIQMTQSPSSLSASVGDRITITCRASQSVGTYLSWFQQKPGKAPKLLIYAASSLQSGVPSRFSGSGSGTDFTLTISSLQPEDFATYFCQQSYSVPPWTFGQGTKVEIKR
notes: as for B1
binding result [2]: binds | binding result [3]: binds

B3: TBRE1017 (antibody, V domains shown)
VH: QVQLVQSGAEVKKPGASVKVSCKASGYNFRDYYMHWVRQAPGQGLEWMGWINPNSGGTISAQNFQGRVTMTRDTSISTAYMEVNSLRSDDTAVYYCAVGMVTDGFEIWGQGTLVTVSS
VL: PYELTQPPSVSVSPGQTARITCSGDALPNENAFWYQQKPGQAPVLVIYEDIKRPSGIPERFSGSSSGTTVTLTISGVQAEDEADYYCQSVDITSTWVFGGGTKLTVLG
notes: as for B1
binding result [4]: binds | binding result [5]: binds | binding result [6]: binds

Second part, the binder after the results:

binding result [7]: binds | binding result [8]: binds | binding result [9]: binds
B4: TBRE1027 (antibody, V domains shown)
VH: EVQLLESGGGLVQPGGSLRLSCAASGFTFSSYAMSWVRQAPGKGLEWVSTISGSGHSTYYADSVKGRFTISRDNSKNTLYLQMNSLRAEDTAVYYCAKSTLGGGFDFWGQGTLVTVSS
VL: DIQMTQSPFSLSASVGDRVTITCRASQSISSYLNWYQQKPGKAPKLLIYAASSLQSGVPSRFSGSGSGTDFTLTISSLQPEDFATYYCHQSYSTSLTFGGGTKVEIKR
notes: as for B1

binding result [10]: binds
B5: TBRE1032 (antibody, V domains shown)
VH: EVQLVESGGGLVQPGGSLRLSCAASGFTFSSYDFHWVRQPTGKGLEWVSAIGTAGDTLYLDSVKGRFTISRENAKNSLYLQMNSLRAGDTAVYYCARVNWNSDTFDSWGQGTLVTVSS
VL: VSSELTQDPAVSVALGQTVRITCQGDSLRRYYASWYQQKAGQAPILVIYGENNRPSGIPDRFSGSGSGNTASLTITGAQAEDEADYYCDSRDSSGNLVVFGGGTKLTVL
notes: as for B1

binding result [11]: binds
B6: TBRE1013 (antibody, V domains shown)
VH: EVQLVESGGGLVKPGGSLRLSCAGSGFSFSSYSMNWVRQAPGKGLEWVSSISSKSSSKNYIDSVKNRFIISRDNAKNSLYLQMNSLRAEDTAVYYCARDLELIIAAGAPLDHWGQGTLVTVSS
VL: DIQMTQSPSSLSASVGDRVTITCRASQSIKNYVNWYQQKPGEAPNLLIFAASNLQSGVPSRFTGSGSGTDFSLTISSLQPEDFAAYYCQQTYSHPRTFGQGTRVEIKR
notes: as for B1
